Legend:
[1] = anti-KOR1 immunoblot of Sf21 culture medium; settings: glycan lost; control: rKOR1 WT
[2] = transient expression in N. benthamiana leaves; settings: glycan lost; control: wild-type KOR1-Fc-GFP
[3] = Golgi processing of remaining glycopeptides, LC-ESI-MS, N. benthamiana; settings: glycan lost; control: wild-type KOR1-Fc-GFP
[4] = CMC hydrolysis after non-denaturing deglycosylation; settings: glycan lost; control: untreated rKOR1 WT
[5] = CMC hydrolysis after non-denaturing Endo H
[6] = glycan lost, control: Endo H-digested rKOR1 WT

B1: KORRIGAN1 (KOR1): N324Q/N345Q (protein)
parent chain: MYGRDPWGGPLEINTADSATDDDRSRNLNDLDRAALSRPLDETQQSWLLGPTEQKKKKYVDLGCIIVSRKIFVWTVGTLVAAALLAGFITLIVKTVPRHHPKTPPPDNYTIALHKALKFFNAQKSGKLPKHNNVSWRGNSGLQDGKGETGSFYKDLVGGYYDAGDAIKFNFPMAYAMTMLSWSVIEYSAKYEAAGELTHVKELIKWGTDYFLKTFNSTADSIDDLVSQVGSGNTDDGNTDPNDHYCWMRPEDMDYKRPVTTCNGGCSDLAAEMAAALASASIVFKDNKEYSKKLVHGAKVVYQFGRTRRGRYSAGTAESSKFYNSSMYWDEFIWGGAWMYYATGNVTYLNLITQPTMAKHAGAFWGGPYYGVFSWDNKLAGAQLLLSRLRLFLSPGYPYEEILRTFHNQTSIVMCSYLPIFNKFNRTNGGLIELNHGAPQPLQYSVNAAFLATLYSDYLDAADTPGWYCGPNFYSTSVLRDFARSQIDYILGKNPRKMSYVVGFGTKYPRHVHHRGASIPKNKVKYNCKGGWKWRDSKKPNPNTIEGAMVAGPDKRDGYRDVRMNYNYTEPTLAGNAGLVAALVALSGEEEATGKIDKNTIFSAVPPLFPTPPPPPAPWKP
expression_or_secretion [1]: decreases
expression_or_secretion [2]: no change
localisation_or_trafficking [3]: no change

B2: KORRIGAN1 (KOR1): PNGase F (protein)
parent chain: MYGRDPWGGPLEINTADSATDDDRSRNLNDLDRAALSRPLDETQQSWLLGPTEQKKKKYVDLGCIIVSRKIFVWTVGTLVAAALLAGFITLIVKTVPRHHPKTPPPDNYTIALHKALKFFNAQKSGKLPKHNNVSWRGNSGLQDGKGETGSFYKDLVGGYYDAGDAIKFNFPMAYAMTMLSWSVIEYSAKYEAAGELTHVKELIKWGTDYFLKTFNSTADSIDDLVSQVGSGNTDDGNTDPNDHYCWMRPEDMDYKRPVTTCNGGCSDLAAEMAAALASASIVFKDNKEYSKKLVHGAKVVYQFGRTRRGRYSAGTAESSKFYNSSMYWDEFIWGGAWMYYATGNVTYLNLITQPTMAKHAGAFWGGPYYGVFSWDNKLAGAQLLLSRLRLFLSPGYPYEEILRTFHNQTSIVMCSYLPIFNKFNRTNGGLIELNHGAPQPLQYSVNAAFLATLYSDYLDAADTPGWYCGPNFYSTSVLRDFARSQIDYILGKNPRKMSYVVGFGTKYPRHVHHRGASIPKNKVKYNCKGGWKWRDSKKPNPNTIEGAMVAGPDKRDGYRDVRMNYNYTEPTLAGNAGLVAALVALSGEEEATGKIDKNTIFSAVPPLFPTPPPPPAPWKP
enzymatic_activity, percent_of_wt [4]: decreases, ∼50 vs 100

B3: KORRIGAN1 (KOR1): Endo H (protein)
parent chain: MYGRDPWGGPLEINTADSATDDDRSRNLNDLDRAALSRPLDETQQSWLLGPTEQKKKKYVDLGCIIVSRKIFVWTVGTLVAAALLAGFITLIVKTVPRHHPKTPPPDNYTIALHKALKFFNAQKSGKLPKHNNVSWRGNSGLQDGKGETGSFYKDLVGGYYDAGDAIKFNFPMAYAMTMLSWSVIEYSAKYEAAGELTHVKELIKWGTDYFLKTFNSTADSIDDLVSQVGSGNTDDGNTDPNDHYCWMRPEDMDYKRPVTTCNGGCSDLAAEMAAALASASIVFKDNKEYSKKLVHGAKVVYQFGRTRRGRYSAGTAESSKFYNSSMYWDEFIWGGAWMYYATGNVTYLNLITQPTMAKHAGAFWGGPYYGVFSWDNKLAGAQLLLSRLRLFLSPGYPYEEILRTFHNQTSIVMCSYLPIFNKFNRTNGGLIELNHGAPQPLQYSVNAAFLATLYSDYLDAADTPGWYCGPNFYSTSVLRDFARSQIDYILGKNPRKMSYVVGFGTKYPRHVHHRGASIPKNKVKYNCKGGWKWRDSKKPNPNTIEGAMVAGPDKRDGYRDVRMNYNYTEPTLAGNAGLVAALVALSGEEEATGKIDKNTIFSAVPPLFPTPPPPPAPWKP
enzymatic_activity, percent_of_wt [4]: decreases, loss of 20–30% vs 100

B4: KORRIGAN1 (KOR1): kifunensine (rKOR1 KIF) + Endo H (protein)
parent chain: MYGRDPWGGPLEINTADSATDDDRSRNLNDLDRAALSRPLDETQQSWLLGPTEQKKKKYVDLGCIIVSRKIFVWTVGTLVAAALLAGFITLIVKTVPRHHPKTPPPDNYTIALHKALKFFNAQKSGKLPKHNNVSWRGNSGLQDGKGETGSFYKDLVGGYYDAGDAIKFNFPMAYAMTMLSWSVIEYSAKYEAAGELTHVKELIKWGTDYFLKTFNSTADSIDDLVSQVGSGNTDDGNTDPNDHYCWMRPEDMDYKRPVTTCNGGCSDLAAEMAAALASASIVFKDNKEYSKKLVHGAKVVYQFGRTRRGRYSAGTAESSKFYNSSMYWDEFIWGGAWMYYATGNVTYLNLITQPTMAKHAGAFWGGPYYGVFSWDNKLAGAQLLLSRLRLFLSPGYPYEEILRTFHNQTSIVMCSYLPIFNKFNRTNGGLIELNHGAPQPLQYSVNAAFLATLYSDYLDAADTPGWYCGPNFYSTSVLRDFARSQIDYILGKNPRKMSYVVGFGTKYPRHVHHRGASIPKNKVKYNCKGGWKWRDSKKPNPNTIEGAMVAGPDKRDGYRDVRMNYNYTEPTLAGNAGLVAALVALSGEEEATGKIDKNTIFSAVPPLFPTPPPPPAPWKP
enzymatic_activity ([5]; glycan changed form, control: Endo H-treated rKOR1 WT): decreases

B5: KORRIGAN1 (KOR1): N216Q + Endo H (protein)
parent chain: MYGRDPWGGPLEINTADSATDDDRSRNLNDLDRAALSRPLDETQQSWLLGPTEQKKKKYVDLGCIIVSRKIFVWTVGTLVAAALLAGFITLIVKTVPRHHPKTPPPDNYTIALHKALKFFNAQKSGKLPKHNNVSWRGNSGLQDGKGETGSFYKDLVGGYYDAGDAIKFNFPMAYAMTMLSWSVIEYSAKYEAAGELTHVKELIKWGTDYFLKTFNSTADSIDDLVSQVGSGNTDDGNTDPNDHYCWMRPEDMDYKRPVTTCNGGCSDLAAEMAAALASASIVFKDNKEYSKKLVHGAKVVYQFGRTRRGRYSAGTAESSKFYNSSMYWDEFIWGGAWMYYATGNVTYLNLITQPTMAKHAGAFWGGPYYGVFSWDNKLAGAQLLLSRLRLFLSPGYPYEEILRTFHNQTSIVMCSYLPIFNKFNRTNGGLIELNHGAPQPLQYSVNAAFLATLYSDYLDAADTPGWYCGPNFYSTSVLRDFARSQIDYILGKNPRKMSYVVGFGTKYPRHVHHRGASIPKNKVKYNCKGGWKWRDSKKPNPNTIEGAMVAGPDKRDGYRDVRMNYNYTEPTLAGNAGLVAALVALSGEEEATGKIDKNTIFSAVPPLFPTPPPPPAPWKP
enzymatic_activity [5, 6]: no change

B6: KORRIGAN1 (KOR1): N324Q + Endo H (protein)
parent chain: MYGRDPWGGPLEINTADSATDDDRSRNLNDLDRAALSRPLDETQQSWLLGPTEQKKKKYVDLGCIIVSRKIFVWTVGTLVAAALLAGFITLIVKTVPRHHPKTPPPDNYTIALHKALKFFNAQKSGKLPKHNNVSWRGNSGLQDGKGETGSFYKDLVGGYYDAGDAIKFNFPMAYAMTMLSWSVIEYSAKYEAAGELTHVKELIKWGTDYFLKTFNSTADSIDDLVSQVGSGNTDDGNTDPNDHYCWMRPEDMDYKRPVTTCNGGCSDLAAEMAAALASASIVFKDNKEYSKKLVHGAKVVYQFGRTRRGRYSAGTAESSKFYNSSMYWDEFIWGGAWMYYATGNVTYLNLITQPTMAKHAGAFWGGPYYGVFSWDNKLAGAQLLLSRLRLFLSPGYPYEEILRTFHNQTSIVMCSYLPIFNKFNRTNGGLIELNHGAPQPLQYSVNAAFLATLYSDYLDAADTPGWYCGPNFYSTSVLRDFARSQIDYILGKNPRKMSYVVGFGTKYPRHVHHRGASIPKNKVKYNCKGGWKWRDSKKPNPNTIEGAMVAGPDKRDGYRDVRMNYNYTEPTLAGNAGLVAALVALSGEEEATGKIDKNTIFSAVPPLFPTPPPPPAPWKP
enzymatic_activity [5, 6]: no change

B7: KORRIGAN1 (KOR1): N345Q + Endo H (protein)
parent chain: MYGRDPWGGPLEINTADSATDDDRSRNLNDLDRAALSRPLDETQQSWLLGPTEQKKKKYVDLGCIIVSRKIFVWTVGTLVAAALLAGFITLIVKTVPRHHPKTPPPDNYTIALHKALKFFNAQKSGKLPKHNNVSWRGNSGLQDGKGETGSFYKDLVGGYYDAGDAIKFNFPMAYAMTMLSWSVIEYSAKYEAAGELTHVKELIKWGTDYFLKTFNSTADSIDDLVSQVGSGNTDDGNTDPNDHYCWMRPEDMDYKRPVTTCNGGCSDLAAEMAAALASASIVFKDNKEYSKKLVHGAKVVYQFGRTRRGRYSAGTAESSKFYNSSMYWDEFIWGGAWMYYATGNVTYLNLITQPTMAKHAGAFWGGPYYGVFSWDNKLAGAQLLLSRLRLFLSPGYPYEEILRTFHNQTSIVMCSYLPIFNKFNRTNGGLIELNHGAPQPLQYSVNAAFLATLYSDYLDAADTPGWYCGPNFYSTSVLRDFARSQIDYILGKNPRKMSYVVGFGTKYPRHVHHRGASIPKNKVKYNCKGGWKWRDSKKPNPNTIEGAMVAGPDKRDGYRDVRMNYNYTEPTLAGNAGLVAALVALSGEEEATGKIDKNTIFSAVPPLFPTPPPPPAPWKP
enzymatic_activity [5, 6]: no change

B8: KORRIGAN1 (KOR1): N408Q + Endo H (protein)
parent chain: MYGRDPWGGPLEINTADSATDDDRSRNLNDLDRAALSRPLDETQQSWLLGPTEQKKKKYVDLGCIIVSRKIFVWTVGTLVAAALLAGFITLIVKTVPRHHPKTPPPDNYTIALHKALKFFNAQKSGKLPKHNNVSWRGNSGLQDGKGETGSFYKDLVGGYYDAGDAIKFNFPMAYAMTMLSWSVIEYSAKYEAAGELTHVKELIKWGTDYFLKTFNSTADSIDDLVSQVGSGNTDDGNTDPNDHYCWMRPEDMDYKRPVTTCNGGCSDLAAEMAAALASASIVFKDNKEYSKKLVHGAKVVYQFGRTRRGRYSAGTAESSKFYNSSMYWDEFIWGGAWMYYATGNVTYLNLITQPTMAKHAGAFWGGPYYGVFSWDNKLAGAQLLLSRLRLFLSPGYPYEEILRTFHNQTSIVMCSYLPIFNKFNRTNGGLIELNHGAPQPLQYSVNAAFLATLYSDYLDAADTPGWYCGPNFYSTSVLRDFARSQIDYILGKNPRKMSYVVGFGTKYPRHVHHRGASIPKNKVKYNCKGGWKWRDSKKPNPNTIEGAMVAGPDKRDGYRDVRMNYNYTEPTLAGNAGLVAALVALSGEEEATGKIDKNTIFSAVPPLFPTPPPPPAPWKP
enzymatic_activity [5, 6]: no change

B9: KORRIGAN1 (KOR1): N425Q + Endo H (protein)
parent chain: MYGRDPWGGPLEINTADSATDDDRSRNLNDLDRAALSRPLDETQQSWLLGPTEQKKKKYVDLGCIIVSRKIFVWTVGTLVAAALLAGFITLIVKTVPRHHPKTPPPDNYTIALHKALKFFNAQKSGKLPKHNNVSWRGNSGLQDGKGETGSFYKDLVGGYYDAGDAIKFNFPMAYAMTMLSWSVIEYSAKYEAAGELTHVKELIKWGTDYFLKTFNSTADSIDDLVSQVGSGNTDDGNTDPNDHYCWMRPEDMDYKRPVTTCNGGCSDLAAEMAAALASASIVFKDNKEYSKKLVHGAKVVYQFGRTRRGRYSAGTAESSKFYNSSMYWDEFIWGGAWMYYATGNVTYLNLITQPTMAKHAGAFWGGPYYGVFSWDNKLAGAQLLLSRLRLFLSPGYPYEEILRTFHNQTSIVMCSYLPIFNKFNRTNGGLIELNHGAPQPLQYSVNAAFLATLYSDYLDAADTPGWYCGPNFYSTSVLRDFARSQIDYILGKNPRKMSYVVGFGTKYPRHVHHRGASIPKNKVKYNCKGGWKWRDSKKPNPNTIEGAMVAGPDKRDGYRDVRMNYNYTEPTLAGNAGLVAALVALSGEEEATGKIDKNTIFSAVPPLFPTPPPPPAPWKP
enzymatic_activity [5, 6]: no change

— article PMC3829318
